From article PMC5496667

Biological target: GFP-tagged Tubulin (fusion construct of Tubulin and GFP)
Test: FRET or BRET

B1: DsRed-tagged Ccdc181 (FACS-FRET construct) (natural protein)
chain: MDEDKDIDSKESGEYEDDFEKDLEWLINDKEKSNGSTIEMACKKEDDLDQVLKENETETELGQQLSDPDNSPKDEALPRRNDFISVPSIQPLDPISDSDSENSFQDSKPENQKDLEDEEDEEVRRYIMEKIIEANKLLQTQEPVNDKRERKLKFKDKLVDLEVPPLEDSDTCKALLENETNMSGKLSQLCISGDLEQESVLVSVTDGSCEENDRKILVERDGKFELMNLQDIESQGFLPPISSANSVEHESSQLPLRAPNPSVGGIKKEESEAKGHVLPISPAGEPLAQVPQLLPNPKNRPSSAANPDVTKKARRSNHRIQSAGVSPVTSTYCLSPRQKELQKQLERKREKLKREEEQRKLEEENEKKKENEMVFKAWLQKKREQVIEMRRVQRAKQIEDMSSRQVNRDPQQAFRLWLKKKHEEQMKERKTEELRKQEECLFFLRGTEGRERAFRQWLRRKQIEKIAEQQAVKERARQLRLEARRSKQLQSSLYSIPEAKAFRFTDHYN
**Q.** With B1 as the binder, how does the percent FRET positive cells read?
**A.** 29.4%
